Measurements taken from the supplement of paper PMC9732359.
± gives the uncertainty stated by the source.

Assay: protein stability index of a GFP-peptide fusion (yeast GPS) (PSI 1-4); higher = more stable; sorted into four equal gates, so the index is relative within each strain
In short: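 Each library plasmid carries Cherry plus GFP with a tiled 17-residue yeast protein peptide fused downstream, and the pooled library was carried in yeast. Mid-log cultures in leucine-free medium were sorted into four equal gates by GFP/Cherry ratio. Reads from Illumina sequencing of PCR-amplified plasmids from each gate were assigned to strains by barcodes. Per peptide, the protein stability index was computed as the summed products of gate read frequency and gate number.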

| Sequence | protein stability index (doa10∆) | protein stability index (pdr5∆) | protein stability index (san1∆) | protein stability index (ubr1∆) |
| --- | --- | --- | --- | --- |
| IGGLIPQWKRHLEEYGY [YCS4] | 2.47 ± 0.068 | 2.83 ± 0.065 | 1.9 ± 0.14 | 2.9 ± 0.057 |
| IGIDEGSDEAYVKDARK [RPC40] | 3.48 ± 0.074 | 3.38 ± 0.076 | 3.19 ± 0.051 | 3.5 ± 0.054 |
| IGIPVNKASLAQYEVLA [QCR2] | 2.52 ± 0.06 | 2.42 ± 0.049 | 1.92 ± 0.088 | 2.81 ± 0.043 |
| IGLDTQQVEGKLSQMIL [RPN6] | 2.95 ± 0.066 | 3.05 ± 0.069 | 3.04 ± 0.071 | 3.06 ± 0.056 |
| IGLRQFQQIQYENKQLY [POP1] | 2.84 ± 0.085 | 2.81 ± 0.061 | 2.92 ± 0.048 | 2.79 ± 0.047 |
| IGQAVQPKRNLSRYVKW [RPL8A] | 2.69 ± 0.065 | 2.97 ± 0.043 | 2.72 ± 0.047 | 2.66 ± 0.047 |
| IGQFLEPIDQNTGIVSS [RPT3] | 2.48 ± 0.2 | 2.82 ± 0.11 | 2.14 ± 0.17 | 2.85 ± 0.066 |
| IGTNDLFQVESAPKISS [SIR4] | 2.42 ± 0.049 | 2.9 ± 0.047 | 2.63 ± 0.047 | 2.43 ± 0.035 |
| IGVIAGGGRVDKPLLKA [RPL2A] | 3.2 ± 0.088 | 3.16 ± 0.09 | 3.05 ± 0.11 | 2.98 ± 0.066 |
| IGVLNNSSESDEEESND [RPN13] | 3.52 ± 0.2 | 2.4 ± 0.25 |  | 3.37 ± 0.095 |
| IHGVLKNVDREVVSEAI [FAS2] | 3.19 ± 0.1 | 3.4 ± 0.3 | 3.3 ± 0.14 |  |
| IIMQADLALKMGVPIYG [FAS2] | 1.63 ± 0.12 | 2.04 ± 0.068 | 1.79 ± 0.069 | 2.11 ± 0.044 |
| IINKLIHIQSKENYPWE [POP3] | 2.65 ± 0.067 | 2.44 ± 0.047 | 1.81 ± 0.068 | 2.41 ± 0.045 |
| IIPSRMGEAQTGANFDD [REC8] | 1.93 ± 0.089 | 2.16 ± 0.12 | 3.04 ± 0.25 | 2.74 ± 0.1 |
| IKEFVDDLKKDHIAIDW [DSN1] | 2.56 ± 0.08 | 2.96 ± 0.075 | 2.73 ± 0.076 | 2.75 ± 0.059 |
| IKENFFERIMILDPQVT [YJL039C/NUP192] | 1.3 ± 0.062 | 1.33 ± 0.054 | 1.29 ± 0.12 | 1.14 ± 0.05 |
| IKIVSDKKVLVKVQPEG [RPT6] | 2.75 ± 0.1 | 2.83 ± 0.09 | 2.85 ± 0.12 | 2.74 ± 0.07 |
| IKKIVADLKKGKDLSPA [QCR2] | 3.5 ± 0.24 | 3.15 ± 0.2 | 3.11 ± 0.26 |  |
| IKTFYWLEQFLSCVKND [NUT1] | 1.31 ± 0.052 | 1.26 ± 0.038 | 1.18 ± 0.061 | 1.13 ± 0.035 |
| IKYEFNGIPLKSKERSS [YMR129W/POM152] | 2.39 ± 0.11 | 1.24 ± 0.057 | 1.52 ± 0.26 | 2.98 ± 0.16 |

| Sequence | protein stability index (doa10∆) | protein stability index (pdr5∆) | protein stability index (san1∆) | protein stability index (ubr1∆) |
| --- | --- | --- | --- | --- |
| ILAAAHRDAYSGGSVNL [PRE2] | 2.86 ± 0.078 | 3.2 ± 0.092 | 2.79 ± 0.062 | 2.89 ± 0.045 |
| ILDSLPSVIHSSVEMLL [YDL116W/NUP84] | 1.97 ± 0.055 | 1.44 ± 0.056 | 1.39 ± 0.084 | 1.44 ± 0.041 |
| ILEEGSSGMGAFGGSGG [RPN10] | 3.36 ± 0.13 | 3 ± 0.16 | 3.04 ± 0.15 | 3.28 ± 0.081 |
| ILLYGPPGTGKTLCARA [RPT1] | 1.26 ± 0.1 | 1.23 ± 0.18 | 1.36 ± 0.19 | 1.28 ± 0.12 |
| ILNEVFTNPSIVKVFHG [RRP6] | 1.24 ± 0.083 | 1.42 ± 0.075 | 1.2 ± 0.18 | 1.29 ± 0.05 |
| ILNFLNQEDLFELVHHF [YML103C/NUP188] | 2.56 ± 0.14 | 2.8 ± 0.083 | 1.88 ± 0.22 | 2.16 ± 0.072 |
| ILNSYGVLKPDITFFGE [SIR2] | 3.27 ± 0.069 | 3.13 ± 0.072 | 3.21 ± 0.049 | 3.31 ± 0.062 |
| ILQILDQDELVQPPLDK [SWP82] | 2.58 ± 0.068 | 2.68 ± 0.11 | 2.62 ± 0.074 | 2.48 ± 0.11 |
| ILRNGIDYLQRNDKTLE [POP1] | 3.19 ± 0.058 | 3.01 ± 0.056 | 2.95 ± 0.054 | 2.88 ± 0.051 |
| ILSLIEEAAGTKMFEDR [SMC2] | 3.27 ± 0.11 | 3.19 ± 0.09 | 3.19 ± 0.084 | 3.24 ± 0.066 |
| IMDNFLERTAIELKTDW [RPN1] | 3 ± 0.2 | 2.99 ± 0.18 | 3.07 ± 0.12 | 2.56 ± 0.15 |
| IMYQQMLKYRRLFIGDQ [SNF2] | 1.45 ± 0.052 | 1.22 ± 0.04 | 1.3 ± 0.12 | 1.42 ± 0.03 |
| INDKRANLMLVMLRLLL [SRB4] | 1.6 ± 0.039 | 1.61 ± 0.047 | 1.97 ± 0.067 | 1.94 ± 0.04 |
| INGWKFESLPLKSAENS [SWP82] | 2.92 ± 0.067 | 3.25 ± 0.053 | 2.9 ± 0.055 | 3.03 ± 0.058 |
| INKNSKIALREYINNCK [POP4] | 2.04 ± 0.23 | 2.17 ± 0.098 | 2.42 ± 0.11 | 1.73 ± 0.14 |
| INYAFSMDEEFKNMDCI [SIR3] | 3.21 ± 0.051 | 3.22 ± 0.042 | 3.26 ± 0.033 | 3.321 ± 0.031 |
| IPDFRSSEGFYSKIKHL [SIR2] | 2.33 ± 0.13 | 2.21 ± 0.075 | 2.17 ± 0.15 | 2.45 ± 0.079 |
| IPGEYITYALSGYVRSR [RPS21B] | 2.42 ± 0.059 | 2.73 ± 0.095 | 2.39 ± 0.093 | 2.77 ± 0.047 |
| IPKLKPAPINSLSRDFV [SNU114] | 2.92 ± 0.052 | 2.8 ± 0.061 | 2.68 ± 0.039 | 2.75 ± 0.047 |
| IPPTFDKGAVGPNNFIW [MED4] | 3.22 ± 0.091 | 3.01 ± 0.084 | 2.77 ± 0.082 | 3.14 ± 0.11 |
